# Reference: patent CN103012589A (SHANGHAI SERUM BIO TECHNOLOGY CO LTD; INST BIOENGINEERING …, dated 2013)
# Residue numbers refer to the chain shown, from its start.
# T1: 重组人VEGF165 (human, UniProt P15692-4 27-191)
# T1 construct: also called VEGF双体; 人血管内皮细胞生长因子
# T1 sequence: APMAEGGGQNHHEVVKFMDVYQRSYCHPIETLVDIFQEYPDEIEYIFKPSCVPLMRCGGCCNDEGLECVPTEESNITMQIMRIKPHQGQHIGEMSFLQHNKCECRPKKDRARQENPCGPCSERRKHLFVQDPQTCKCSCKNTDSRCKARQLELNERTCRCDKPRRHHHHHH
# B1: VA6L-K90D_D92V (antibody, V domains shown)
# VH: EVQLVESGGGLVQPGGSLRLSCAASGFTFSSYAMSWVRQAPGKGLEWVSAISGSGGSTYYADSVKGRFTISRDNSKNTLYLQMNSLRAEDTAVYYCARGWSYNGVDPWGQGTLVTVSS
# VL: SYELTQPPSVSVAPGQTARITCSGDALGDKYASWYQQKPGQAPVLVIYEDSKRPSGIPERFSGSNSGNTATLTISGTQAEDEADYYCQVDSVNYGYVFGGGTKLTVLG
# notes: also called VA6-3
# B2: VA6-57 (antibody, IgG1, V domains shown)
# VH: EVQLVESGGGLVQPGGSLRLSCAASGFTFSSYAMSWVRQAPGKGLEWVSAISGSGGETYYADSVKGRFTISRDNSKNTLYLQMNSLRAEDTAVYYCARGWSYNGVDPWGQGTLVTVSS
# VL: B1 VL
# notes: Whole antibody (IgG1, lambda); built further on VA6-3
# B3: VA6全抗体 (antibody, V domains shown)
# VH: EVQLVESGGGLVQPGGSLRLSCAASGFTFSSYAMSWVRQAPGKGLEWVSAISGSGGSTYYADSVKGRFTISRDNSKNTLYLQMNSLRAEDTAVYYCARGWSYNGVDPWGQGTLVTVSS
# VL: B1 VL with D90K, V92D
# notes: Whole antibody from vectors pABL (lambda) and pABG1 (human IgG1), HEK293T transient expression
# Biological target: T1, 重组人VEGF165
# Test: Biacore SPR, VEGF coupled on CM5 chip, whole antibody as analyte, 1:1 Langmuir fit
Kd,koff,kon,Binder
5.27 nM,0.00149 s⁻¹,283000 M⁻¹ s⁻¹,B1
1.8 nM,0.00096 s⁻¹,550000 M⁻¹ s⁻¹,B2
12.7 nM,0.000445 s⁻¹,35000 M⁻¹ s⁻¹,B3
